From paper PMC4433907, “Heterologous expression and characterization of laccase 2 from Coprinopsis cinerea capable of decolourizing different recalcitrant dyes” (Biotechnology, Biotechnological Equipment, 2014) come the findings set out here.

Holding throughout (assay): purified protein
Substrate in data set [1]: COc1ccccc1O
The settings on record: McIlvaine buffer, 30 °C, 10 min, apparent Km.

Substrate in data set [2]: COc1cccc(OC)c1O
In kind it is biochemical, Coprinopsis cinerea. The settings on record: McIlvaine buffer, 30 °C, 10 min, apparent Km.

Substrate in data set [3]: CCn1c(=NN=c2sc3cc(S(=O)(=O)O)ccc3n2CC)sc2cc(S(=O)(=O)O)ccc21
It counts as biochemical, Coprinopsis cinerea. The settings on record: McIlvaine buffer (pH 2.6 in the standard assay), 30 °C, 10 min, apparent Km.

B1: CcLcc2 (laccase 2) (Coprinopsis cinerea okayama7#130) (protein)
chain: AIGPSTNLVVANKVIAPDGFSRSAVLAGATQPTVQFPGPVIQGNKNSFFAINVIDALTDPTMLRTTSIHWHGMFQRGTAWADGPAGVTQCPISPGHSFLYKFQALNQAGTFWYHSHHESQYCDGLRGAMVVYDPVDPHRNLYDIDNEATIITLADWYHVPAPSAGLVPTPDSTLINGKGRYAGGPTVPLAVISVTRNRRYRFRLVSLSCDPNYVFSIDGHTMTVIEVDGVNVQPLVVDSIQIFAGQRYSFVLNANRPVGNYWVRANPNIGTTGFVGGVNSAILRYVGASNTDPTTTQTPFSNPLLETNLHPLTNPAAPGLPTPGGVDVAINLNTVFDFSSLTFSVNGATFHQPPVPVLLQIMSGAQTAQQLLPSGSVYVLPRNKVIELSMPGGSTGSPHPFHLHGHEFAVVRSAGSSTYNFANPVRRDVVSAGVAGDNVTIRFRTDNPGPWILHCHIDWHLVLGLAVVFAEDAPTVATMDPPPAWDQLCPIYDALPPNT
Broadly, the Km is the substrate concentration at which the rate is half of its maximum. For orientation: Vmax means the top rate of the reaction or transport when substrate is in excess. Broadly, the kcat is the maximal rate divided by the concentration of active sites. For orientation: kcat/Km means the second-order rate constant that governs catalysis at low substrate concentration. For B1, in “purified protein [1]”, the Km turned out to be 28070 µM, the Vmax amounted to 2.46 µmol/min/mg, the kcat stood at 3.12 s⁻¹ and the kcat/Km worked out at 111 M⁻¹ s⁻¹. Further, in the data set “purified protein [2]”, the Km was found to be 1020 µM, the Vmax turned out to be 57.5 µmol/min/mg, the kcat came to 73 s⁻¹ and the catalytic efficiency (kcat/Km) is 71600 M⁻¹ s⁻¹. Also, in the data set “purified protein [3]”, the Michaelis constant (Km) was found to be 930 µM, the Vmax is 667 µmol/min/mg, the kcat stood at 847 s⁻¹ and the catalytic efficiency (kcat/Km) worked out at 911000 M⁻¹ s⁻¹.
